Test results as given in patent publication US20230151095A1 (published 2023).

T1: XENP23311 (His-tagged NKG2D-Fc) (human, UniProt P26718 78-216)
T1 chain: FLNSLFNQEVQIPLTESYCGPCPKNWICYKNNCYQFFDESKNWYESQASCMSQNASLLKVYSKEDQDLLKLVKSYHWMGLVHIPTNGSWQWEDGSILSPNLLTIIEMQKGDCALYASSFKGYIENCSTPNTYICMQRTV


Target: T1, XENP23311 (His-tagged NKG2D-Fc)
Assay: Octet

Binder	Kd [nM]
XENP40587 (1D2B4, 2+1 VHVL) (antibody) chain 1: EVQLLESGGGLVQPGGSLRLSCAVSGFSLSSYGVIWVRQAPGKGLEYVSWVSSGGSTNYASSVKGRFTISRDTSKNTVYLQMNSLRAEDTAVYFCARGATNSGTDIWGPGTLVTVSSASTKGPSVFPLAPSSKSTSGGTAALGCLVKDYFPEPVTVSWNSGALTSGVHTFPAVLQSSGLYSLSSVVTVPSSSLGTQTYICNVNHKPSDTKVDKKVEPKSCDKTHTCPPCPAPELLGGPSVFLFPPKPKDTLMISRTPEVTCVVVDVSHEDPEVKFNWYVDGVEVHNAKTKPREEEYNSTYRVVSVLTVLHQDWLNGKEYKCKVSNKALPAPIEKTISKAKGQPREPQVYTLPPSREEMTKNQVSLTCDVSGFYPSDIAVEWESDGQPENNYKTTPPVLDSDGSFFLYSKLTVDKSRWEQGDVFSCSVMHEALHNHYTQKSLSLSPGK chain 2: not shown chain 3: DIVMTQSPSSLSASVGDRVTITCRASQSINSWLSWYQQKPGKPPKLLIYGASNLASGVPSRFKGSGSGTDFTLTISSLQPEDFATYYCQNNYGIIAAGATFGGGTKVEIKRTVAAPSVFIFPPSDEQLKSGTASVVCLLNNFYPREAKVQWKVDNALQSGNSQESVTEQDSKDSTYSLSSTLTLSKADYEKHKVYACEVTHQGLSSPVTKSFNRGEC	59.8
XENP40381 (LB_1001, 1+1 VHVL) (antibody) chain 1: EVQLLESGGGLVQPGGSLRLSCAVSGFSLSSYGVIWVRQAPGKGLEYVSWVSSGGSTNYASSVKGRFTISRDTSKNTVYLQMNSLRAEDTAVYFCARGATNSGTDIWGPGTLVTVSSASTKGPSVFPLAPSSKSTSGGTAALGCLVKDYFPEPVTVSWNSGALTSGVHTFPAVLQSSGLYSLSSVVTVPSSSLGTQTYICNVNHKPSDTKVDKKVEPKSCDKTHTCPPCPAPELLGGPSVFLFPPKPKDTLMISRTPEVTCVVVDVSHEDPEVKFNWYVDGVEVHNAKTKPREEEYNSTYRVVSVLTVLHQDWLNGKEYKCKVSNKALPAPIEKTISKAKGQPREPQVYTLPPSREEMTKNQVSLTCDVSGFYPSDIAVEWESDGQPENNYKTTPPVLDSDGSFFLYSKLTVDKSRWEQGDVFSCSVMHEALHNHYTQKSLSLSPGK chain 2: not shown chain 3: DIVMTQSPSSLSASVGDRVTITCRASQSINSWLSWYQQKPGKPPKLLIYGASNLASGVPSRFKGSGSGTDFTLTISSLQPEDFATYYCQNNYGIIAAGATFGGGTKVEIKRTVAAPSVFIFPPSDEQLKSGTASVVCLLNNFYPREAKVQWKVDNALQSGNSQESVTEQDSKDSTYSLSSTLTLSKADYEKHKVYACEVTHQGLSSPVTKSFNRGEC	84.5
XENP40372 (1D2B4, 1+1 VHVL) (antibody) chain 1: EVQLLESGGGLVQPGGSLRLSCAVSGFSLSSYGVIWVRQAPGKGLEYVSWVSSGGSTNYASSVKGRFTISRDTSKNTVYLQMNSLRAEDTAVYFCARGATNSGTDIWGPGTLVTVSSASTKGPSVFPLAPSSKSTSGGTAALGCLVKDYFPEPVTVSWNSGALTSGVHTFPAVLQSSGLYSLSSVVTVPSSSLGTQTYICNVNHKPSDTKVDKKVEPKSCDKTHTCPPCPAPELLGGPSVFLFPPKPKDTLMISRTPEVTCVVVDVSHEDPEVKFNWYVDGVEVHNAKTKPREEEYNSTYRVVSVLTVLHQDWLNGKEYKCKVSNKALPAPIEKTISKAKGQPREPQVYTLPPSREEMTKNQVSLTCDVSGFYPSDIAVEWESDGQPENNYKTTPPVLDSDGSFFLYSKLTVDKSRWEQGDVFSCSVMHEALHNHYTQKSLSLSPGK chain 2: not shown chain 3: DIVMTQSPSSLSASVGDRVTITCRASQSINSWLSWYQQKPGKPPKLLIYGASNLASGVPSRFKGSGSGTDFTLTISSLQPEDFATYYCQNNYGIIAAGATFGGGTKVEIKRTVAAPSVFIFPPSDEQLKSGTASVVCLLNNFYPREAKVQWKVDNALQSGNSQESVTEQDSKDSTYSLSSTLTLSKADYEKHKVYACEVTHQGLSSPVTKSFNRGEC	35.7
XENP41339 (1D2B4, 2+1 VLVH) (antibody) chain 1: EVQLLESGGGLVQPGGSLRLSCAVSGFSLSSYGVIWVRQAPGKGLEYVSWVSSGGSTNYASSVKGRFTISRDTSKNTVYLQMNSLRAEDTAVYFCARGATNSGTDIWGPGTLVTVSSASTKGPSVFPLAPSSKSTSGGTAALGCLVKDYFPEPVTVSWNSGALTSGVHTFPAVLQSSGLYSLSSVVTVPSSSLGTQTYICNVNHKPSDTKVDKKVEPKSCDKTHTCPPCPAPELLGGPSVFLFPPKPKDTLMISRTPEVTCVVVDVSHEDPEVKFNWYVDGVEVHNAKTKPREEEYNSTYRVVSVLTVLHQDWLNGKEYKCKVSNKALPAPIEKTISKAKGQPREPQVYTLPPSREEMTKNQVSLTCDVSGFYPSDIAVEWESDGQPENNYKTTPPVLDSDGSFFLYSKLTVDKSRWEQGDVFSCSVMHEALHNHYTQKSLSLSPGK chain 2: not shown chain 3: DIVMTQSPSSLSASVGDRVTITCRASQSINSWLSWYQQKPGKPPKLLIYGASNLASGVPSRFKGSGSGTDFTLTISSLQPEDFATYYCQNNYGIIAAGATFGGGTKVEIKRTVAAPSVFIFPPSDEQLKSGTASVVCLLNNFYPREAKVQWKVDNALQSGNSQESVTEQDSKDSTYSLSSTLTLSKADYEKHKVYACEVTHQGLSSPVTKSFNRGEC	83.1

The remaining binders from weak to strong by Kd, led by results:

Kd [nM]	Binder
458	XENP40457 (LB_1002, 1+1 VHVL) (antibody) chain 1: EVQLLESGGGLVQPGGSLRLSCAVSGFSLSSYGVIWVRQAPGKGLEYVSWVSSGGSTNYASSVKGRFTISRDTSKNTVYLQMNSLRAEDTAVYFCARGATNSGTDIWGPGTLVTVSSASTKGPSVFPLAPSSKSTSGGTAALGCLVKDYFPEPVTVSWNSGALTSGVHTFPAVLQSSGLYSLSSVVTVPSSSLGTQTYICNVNHKPSDTKVDKKVEPKSCDKTHTCPPCPAPELLGGPSVFLFPPKPKDTLMISRTPEVTCVVVDVSHEDPEVKFNWYVDGVEVHNAKTKPREEEYNSTYRVVSVLTVLHQDWLNGKEYKCKVSNKALPAPIEKTISKAKGQPREPQVYTLPPSREEMTKNQVSLTCDVSGFYPSDIAVEWESDGQPENNYKTTPPVLDSDGSFFLYSKLTVDKSRWEQGDVFSCSVMHEALHNHYTQKSLSLSPGK chain 2: not shown chain 3: DIVMTQSPSSLSASVGDRVTITCRASQSINSWLSWYQQKPGKPPKLLIYGASNLASGVPSRFKGSGSGTDFTLTISSLQPEDFATYYCQNNYGIIAAGATFGGGTKVEIKRTVAAPSVFIFPPSDEQLKSGTASVVCLLNNFYPREAKVQWKVDNALQSGNSQESVTEQDSKDSTYSLSSTLTLSKADYEKHKVYACEVTHQGLSSPVTKSFNRGEC
278	XENP41337 (LB_1001, 2+1 VLVH) (antibody) chain 1: EVQLLESGGGLVQPGGSLRLSCAVSGFSLSSYGVIWVRQAPGKGLEYVSWVSSGGSTNYASSVKGRFTISRDTSKNTVYLQMNSLRAEDTAVYFCARGATNSGTDIWGPGTLVTVSSASTKGPSVFPLAPSSKSTSGGTAALGCLVKDYFPEPVTVSWNSGALTSGVHTFPAVLQSSGLYSLSSVVTVPSSSLGTQTYICNVNHKPSDTKVDKKVEPKSCDKTHTCPPCPAPELLGGPSVFLFPPKPKDTLMISRTPEVTCVVVDVSHEDPEVKFNWYVDGVEVHNAKTKPREEEYNSTYRVVSVLTVLHQDWLNGKEYKCKVSNKALPAPIEKTISKAKGQPREPQVYTLPPSREEMTKNQVSLTCDVSGFYPSDIAVEWESDGQPENNYKTTPPVLDSDGSFFLYSKLTVDKSRWEQGDVFSCSVMHEALHNHYTQKSLSLSPGK chain 2: not shown chain 3: DIVMTQSPSSLSASVGDRVTITCRASQSINSWLSWYQQKPGKPPKLLIYGASNLASGVPSRFKGSGSGTDFTLTISSLQPEDFATYYCQNNYGIIAAGATFGGGTKVEIKRTVAAPSVFIFPPSDEQLKSGTASVVCLLNNFYPREAKVQWKVDNALQSGNSQESVTEQDSKDSTYSLSSTLTLSKADYEKHKVYACEVTHQGLSSPVTKSFNRGEC
83.8	XENP40555 (1D2B4, mAb-scFv VHVL) (antibody) chain 1: EVQLLESGGGLVQPGGSLRLSCAVSGFSLSSYGVIWVRQAPGKGLEYVSWVSSGGSTNYASSVKGRFTISRDTSKNTVYLQMNSLRAEDTAVYFCARGATNSGTDIWGPGTLVTVSSASTKGPSVFPLAPSSKSTSGGTAALGCLVKDYFPEPVTVSWNSGALTSGVHTFPAVLQSSGLYSLSSVVTVPSSSLGTQTYICNVNHKPSDTKVDKKVEPKSCDKTHTCPPCPAPELLGGPSVFLFPPKPKDTLMISRTPEVTCVVVDVSHEDPEVKFNWYVDGVEVHNAKTKPREEEYNSTYRVVSVLTVLHQDWLNGKEYKCKVSNKALPAPIEKTISKAKGQPREPQVYTLPPSREEMTKNQVSLTCDVSGFYPSDIAVEWESDGQPENNYKTTPPVLDSDGSFFLYSKLTVDKSRWEQGDVFSCSVMHEALHNHYTQKSLSLSPGK chain 2: not shown chain 3: DIVMTQSPSSLSASVGDRVTITCRASQSINSWLSWYQQKPGKPPKLLIYGASNLASGVPSRFKGSGSGTDFTLTISSLQPEDFATYYCQNNYGIIAAGATFGGGTKVEIKRTVAAPSVFIFPPSDEQLKSGTASVVCLLNNFYPREAKVQWKVDNALQSGNSQESVTEQDSKDSTYSLSSTLTLSKADYEKHKVYACEVTHQGLSSPVTKSFNRGEC
18.4	XENP41340 (1D7B4, 2+1 VLVH) (antibody) chain 1: EVQLLESGGGLVQPGGSLRLSCAVSGFSLSSYGVIWVRQAPGKGLEYVSWVSSGGSTNYASSVKGRFTISRDTSKNTVYLQMNSLRAEDTAVYFCARGATNSGTDIWGPGTLVTVSSASTKGPSVFPLAPSSKSTSGGTAALGCLVKDYFPEPVTVSWNSGALTSGVHTFPAVLQSSGLYSLSSVVTVPSSSLGTQTYICNVNHKPSDTKVDKKVEPKSCDKTHTCPPCPAPELLGGPSVFLFPPKPKDTLMISRTPEVTCVVVDVSHEDPEVKFNWYVDGVEVHNAKTKPREEEYNSTYRVVSVLTVLHQDWLNGKEYKCKVSNKALPAPIEKTISKAKGQPREPQVYTLPPSREEMTKNQVSLTCDVSGFYPSDIAVEWESDGQPENNYKTTPPVLDSDGSFFLYSKLTVDKSRWEQGDVFSCSVMHEALHNHYTQKSLSLSPGK chain 2: not shown chain 3: DIVMTQSPSSLSASVGDRVTITCRASQSINSWLSWYQQKPGKPPKLLIYGASNLASGVPSRFKGSGSGTDFTLTISSLQPEDFATYYCQNNYGIIAAGATFGGGTKVEIKRTVAAPSVFIFPPSDEQLKSGTASVVCLLNNFYPREAKVQWKVDNALQSGNSQESVTEQDSKDSTYSLSSTLTLSKADYEKHKVYACEVTHQGLSSPVTKSFNRGEC
